The target of one assay is T1, c-Met protein (UniProt P08581 25-932, limits assumed).
T1 construct: The construct is not described; also called c-Met antigen
The assay can be described thus: ELISA, plate coated with c-Met protein at 2 ug/ml, HRP detection antibody. The method, then: The c-Met protein was prepared with a diluent to a final concentration of 2 μg/ml, and added to a microplate at 100 μl per well, overnight at 4° C. The solution in the well was discarded, and the plate was washed three times with PBST. The plate was added with a blocking solution at 300 μl/well and incubated at 37° C. for 2 h. The solution in the well was discarded, and the plate was washed three times with PBST. […] The solution in the well was discarded, and the plate was washed three times with PBST. HRP detection antibody was prepared by adding diluent at a dilution of 1:5000, added at 100 μl per well, and incubated at 37° C. for 1 h. The solution in the well was discarded, and the plate was washed three times with PB ST. The plate was added with TMB color developing solution, incubated at room temperature for 2 min, and then added with Elisa stop solution.

For a further assay, the target named is T2, soluble ED protein (UniProt P08581 25-932, limits assumed).
T2 construct: domain: ED; It is read here as the c-Met extracellular domain because the antibodies are anti-c-Met
The assay can be described thus: ELISA, plate coated with soluble ED protein, HRP anti-human IgG Fc detection. The method, then: The affinities of chimeric cAAJ8D6 and the humanized antibody AAJ8D6 were determined by ELISA. A 96-well plate was coated with soluble ED protein and then incubated with diluted antibodies. ED-related antibodies were detected with an HRP-conjugated goat F(ab′)2 anti-human IgG Fc-specific secondary antibody.

T1 sequence (P08581 25-932 limits assumed): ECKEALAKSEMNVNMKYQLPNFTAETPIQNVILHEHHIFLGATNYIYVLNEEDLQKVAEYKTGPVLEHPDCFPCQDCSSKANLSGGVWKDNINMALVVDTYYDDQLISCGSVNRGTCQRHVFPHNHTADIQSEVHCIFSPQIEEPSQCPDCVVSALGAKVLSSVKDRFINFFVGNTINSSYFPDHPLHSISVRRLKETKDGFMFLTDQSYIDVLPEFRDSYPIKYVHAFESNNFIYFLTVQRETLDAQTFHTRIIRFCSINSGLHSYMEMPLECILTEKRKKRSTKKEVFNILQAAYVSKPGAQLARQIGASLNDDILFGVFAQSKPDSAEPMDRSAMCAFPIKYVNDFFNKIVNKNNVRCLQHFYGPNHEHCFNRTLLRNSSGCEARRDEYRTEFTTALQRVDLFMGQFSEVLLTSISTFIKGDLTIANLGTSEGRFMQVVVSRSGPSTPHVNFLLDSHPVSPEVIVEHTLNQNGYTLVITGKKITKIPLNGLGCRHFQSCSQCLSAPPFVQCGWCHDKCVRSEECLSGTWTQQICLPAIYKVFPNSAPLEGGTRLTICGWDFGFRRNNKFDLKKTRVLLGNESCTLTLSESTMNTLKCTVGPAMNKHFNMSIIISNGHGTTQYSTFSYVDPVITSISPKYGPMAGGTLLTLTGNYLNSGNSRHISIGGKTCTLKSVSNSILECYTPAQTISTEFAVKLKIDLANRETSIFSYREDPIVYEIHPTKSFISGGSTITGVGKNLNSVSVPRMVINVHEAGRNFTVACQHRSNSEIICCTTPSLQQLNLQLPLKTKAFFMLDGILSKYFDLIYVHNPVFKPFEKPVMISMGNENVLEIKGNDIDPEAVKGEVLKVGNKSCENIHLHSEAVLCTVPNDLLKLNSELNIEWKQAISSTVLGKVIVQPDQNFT
T2 sequence (P08581 25-932 limits assumed): as above

B1: anti-c-Met humanized antibody AAJ8D6 (antibody, human IgG1, kappa, V domains shown)
VH: QVQLEQSGPEVVKPGASVKVSCKASGYSFTSYWMHWVRQAPGQGLEWMGMIDPSDSESRLNQKFKDRVTMTVDTPTSTVYMELSSPRSEDTAVYYCARSGYHGTSYWYFDVWGQGTLVTVSS
VL: DIVMTQSPLSLPVTPGEPASISCRSSKSLLHSDGITYLYWYLQKPGQSPQLLIYQMSNLASGVPDRFSGSGSGTDFTLKISRVEAEDVGVYYCAQNLELPPTFGGGTKVEIKR
notes: also called AAJ8D6 antibody
Regarding B1, the EC50 with c-Met protein was found to be 0.54 ng/mL; with soluble ED protein, 3.53 ng/mL.

B2: ABT-700 (telisotuzumab) (antibody, V domains shown)
VH: QVQLVQSGAEVKKPGASVKVSCKASGYIFTAYTMHWVRQAPGQGLEWMGWIKPNNGLANYAQKFQGRVTMTRDTSISTAYMELSRLRSDDTAVYYCARSEITTEFDYWGQGTLVTVSS
VL: DIVMTQSPDSLAVSLGERATINCKSSESVDSYANSFLHWYQQKPGQPPKLLIYRASTRESGVPDRFSGSGSGTDFTLTISSLQAEDVAVYYCQQSKEDPLTFGGGTKVEIKR
Regarding B2, the EC50 in the assay with c-Met protein was 1.33 ng/mL.

The values above are taken from US20240165253A1 (REMEGEN, published 2024).
